Measured values reported in US10517958B2, “Compositions and methods for the treatment of platinum-drug resistant cancer” (ZYMEWORKS INC., priority 2016, dated 2019).

Test system: UM-UC13 parental and ex vivo cells
Assay: Internalization assay (confocal microscopy)
Type: cell-based, human
Conditions: ex vivo and in situ G0-G6 tumor cells
Description: UM-UC13 parental and ex vivo cells were seeded to cover slips and grown to 80% confluency. 100 nM rVAR2-V5 was incubated with the cells for 1 hour at 37° C. and 5% CO2. Cells were subsequently washed with PBS prior to fixation with 4% paraformaldehylde for 15 min at room temperature followed by permeabilization with 0.5% trition for 3 mins and blocked with 3% BSA for 30 mins. Cells were then incubated with primary Anti-V5 antibody from ThermoFischer (R960-25) according to manufacturer's instructions followed by 1 hour incubation with anti-mouse AlexaFluor488 secondary antibody from Invitrogen (A-21202). Cover slips were washed with PBS and mounted in mounting media containing DAPI and analyzed by laser-scanning confocal microscopy.

B1: rVAR2: ID1, DBL2X and ID2a domains of the full-length malarial VAR2CSA protein linked to a C-terminal V5 tag (protein)
chain: GHSDSGKYDPCEKKLPPYDDNDQWKCQQNSSDGSGKPENICVPPRRERLCTYNLENLKFDKIRDNNAFLADVLLTARNEGEKIVQNHPDTNSSNVCNALERSFADLADIIRGTDQWKGTNSNLEKNLKQMFAKIRENDKVLQDKYPKDQKYTKLREAWWNANRQKVWEVITCGARSNDLLIKRGWRTSGKSDRKKNFELCRKCGHYEKEVPTKLDYVPQFLRWLTEWIEDFYREKQNLIDDMERHREECTREDHKSKEGTSYCSTCKDKCKKYCECVKKWKTEWENQENKYKDLYEQNKNKTSQKNTSRYDDYVKDFFEKLEANYSSLENYIKGDPYFAEYATKLSFILNPSDANNPSGETANHNDEACNCNESGISSVGQAQTSGPSSNKTCITHSSIKTNKKKECKDVKLGVRENDKDLKICVIEDTSLSGVDNCCCQDLLGILQENCSDNKRGSSSNDSCDNKNQDECQKKLEKVFASLTNGYKCDKCKSGTSRSKKKWIWKKSSGNEEGLQEEYANTIGLPPRTQSLYLGNLPKLENVCEDVKDINFDTKEKFLAGCLIVSFHEGKNLKKRYPQNKNSGNKENLCKALEYSFADYGDLIKGTSIWDNEYTKDLELNLQNNFGKLFGKYIKKNNTAEQDTSYSSLDELRESWWNTNKKYIWTAMKHGAEMNITTCNADGSVTGSGSSCDDIPTIDLIPQYLRFLQEWVENFCEQRQAKVKDVITNCKSCKESGNKCKTECKTKCKDECEKYKKFIEACGTAGGGIGTAGSPWSKRWDQIYKRYSKHIEDAKRNRKAGTKNCGTSSTTNAAASTDENKCVQSDIDSFFKHLIDIGLTTPSSYLSNVLDDNICGADKAPWTTYTTYTTTEKCNKERDKSKSQSSDTLVVVNVPSPLGNTPYRYKYACQCKIPTNEETCDDRKEYMNQWSCGSARTMKRGYKNDNYELCKYNGVDVKPTTVRSNSSKLDSGRGELEGKPIPNPLLGLDSTRTGHHHHHH
internalization of rVAR2 protein: retained internalization capacity
